The values below come from PMC6862324.

The assay concerns the target T1, FLAG-tagged human NLRP1 (human), Q9C000.
T1 chain: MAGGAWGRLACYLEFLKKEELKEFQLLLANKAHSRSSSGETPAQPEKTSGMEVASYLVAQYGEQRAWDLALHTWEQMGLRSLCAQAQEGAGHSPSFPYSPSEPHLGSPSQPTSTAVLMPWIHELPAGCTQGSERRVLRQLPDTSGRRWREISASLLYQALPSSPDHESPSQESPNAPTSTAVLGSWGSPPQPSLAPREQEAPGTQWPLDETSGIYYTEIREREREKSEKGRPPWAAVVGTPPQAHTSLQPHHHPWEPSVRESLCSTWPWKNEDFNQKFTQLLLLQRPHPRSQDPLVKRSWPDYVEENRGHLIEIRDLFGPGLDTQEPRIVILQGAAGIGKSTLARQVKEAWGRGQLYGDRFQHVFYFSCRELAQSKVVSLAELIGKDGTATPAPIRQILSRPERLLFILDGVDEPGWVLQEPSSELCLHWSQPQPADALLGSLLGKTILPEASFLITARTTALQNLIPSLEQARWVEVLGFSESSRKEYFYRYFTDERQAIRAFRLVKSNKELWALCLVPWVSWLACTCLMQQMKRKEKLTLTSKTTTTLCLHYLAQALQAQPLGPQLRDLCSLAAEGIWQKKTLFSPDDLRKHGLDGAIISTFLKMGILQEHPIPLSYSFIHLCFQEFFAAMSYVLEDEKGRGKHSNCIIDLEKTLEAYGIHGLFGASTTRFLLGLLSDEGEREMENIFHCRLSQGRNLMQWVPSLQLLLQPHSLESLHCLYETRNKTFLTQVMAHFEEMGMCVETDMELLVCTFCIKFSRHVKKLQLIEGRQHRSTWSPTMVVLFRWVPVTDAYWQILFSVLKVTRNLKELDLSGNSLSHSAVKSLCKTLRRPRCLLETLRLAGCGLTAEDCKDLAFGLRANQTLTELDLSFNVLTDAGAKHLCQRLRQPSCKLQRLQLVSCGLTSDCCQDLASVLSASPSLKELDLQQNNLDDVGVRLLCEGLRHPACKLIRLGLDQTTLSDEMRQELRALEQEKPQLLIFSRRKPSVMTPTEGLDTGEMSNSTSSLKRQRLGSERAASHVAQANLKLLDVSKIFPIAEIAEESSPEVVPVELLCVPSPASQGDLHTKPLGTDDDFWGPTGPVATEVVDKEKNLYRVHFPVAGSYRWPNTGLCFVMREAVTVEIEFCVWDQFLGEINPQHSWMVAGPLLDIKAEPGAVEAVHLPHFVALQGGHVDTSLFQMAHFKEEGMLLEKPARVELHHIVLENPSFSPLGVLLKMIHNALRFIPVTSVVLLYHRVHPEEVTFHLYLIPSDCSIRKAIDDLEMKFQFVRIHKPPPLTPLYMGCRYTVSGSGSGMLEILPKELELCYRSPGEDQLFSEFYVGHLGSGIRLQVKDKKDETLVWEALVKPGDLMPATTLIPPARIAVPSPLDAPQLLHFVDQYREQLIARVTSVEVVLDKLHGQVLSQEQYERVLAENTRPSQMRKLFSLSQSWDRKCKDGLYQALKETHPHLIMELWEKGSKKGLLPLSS
The assay can be described thus: co-IP. The settings on record: remark: other sources report otherwise.

B1: endogenous DPP9, Q86TI2 1-863 (enzyme)
chain: MATTGTPTADRGDAAATDDPAARFQVQKHSWDGLRSIIHGSRKYSGLIVNKAPHDFQFVQKTDESGPHSHRLYYLGMPYGSRENSLLYSEIPKKVRKEALLLLSWKQMLDHFQATPHHGVYSREEELLRERKRLGVFGITSYDFHSESGLFLFQASNSLFHCRDGGKNGFMVSPMKPLEIKTQCSGPRMDPKICPADPAFFSFINNSDLWVANIETGEERRLTFCHQGLSNVLDDPKSAGVATFVIQEEFDRFTGYWWCPTASWEGSEGLKTLRILYEEVDESEVEVIHVPSPALEERKTDSYRYPRTGSKNPKIALKLAEFQTDSQGKIVSTQEKELVQPFSSLFPKVEYIARAGWTRDGKYAWAMFLDRPQQWLQLVLLPPALFIPSTENEEQRLASARAVPRNVQPYVVYEEVTNVWINVHDIFYPFPQSEGEDELCFLRANECKTGFCHLYKVTAVLKSQGYDWSEPFSPGEDEFKCPIKEEIALTSGEWEVLARHGSKIWVNEETKLVYFQGTKDTPLEHHLYVVSYEAAGEIVRLTTPGFSHSCSMSQNFDMFVSHYSSVSTPPCVHVYKLSGPDDDPLHKQPRFWASMMEAASCPPDYVPPEIFHFHTRSDVRLYGMIYKPHALQPGKKHPTVLFVYGGPQVQLVNNSFKGIKYLRLNTLASLGYAVVVIDGRGSCQRGLRFEGALKNQMGQVEIEDQVEGLQFVAEKYGFIDLSRVAIHGWSYGGFLSLMGLIHKPQVFKVAIAGAPVTVWMAYDTGYTERYMDVPENNQHGYEAGSVALHVEKLPNEPNRLLILHGFLDENVHFFHTNFLVSQLIRAGKPYQLQIYPNERHSIRCPESGEHYEVTLLHFLQEYL
B1 had a fold reduction of binding with VbP (10 uM, in the lysate) against DMSO of 2 fold.
